Assays:
[1] = molecular target: K. lactis Ndc10 DI–III (residues 1–534), purified (Kluyveromyces lactis); assay: AUC
[2] = molecular target: T1, Ndc10 DV (Kluyveromyces lactis, UniProt Q6CPM4 631-736); assay: EMSA
T1 sequence: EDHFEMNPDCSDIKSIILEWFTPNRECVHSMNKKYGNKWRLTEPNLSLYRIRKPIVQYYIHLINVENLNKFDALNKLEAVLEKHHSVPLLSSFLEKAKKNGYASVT

[3] = molecular target: T2, Ndc10 full-length (Kluyveromyces lactis, UniProt Q6CPM4 1-736); assay: fluorescence anisotropy
T2 sequence: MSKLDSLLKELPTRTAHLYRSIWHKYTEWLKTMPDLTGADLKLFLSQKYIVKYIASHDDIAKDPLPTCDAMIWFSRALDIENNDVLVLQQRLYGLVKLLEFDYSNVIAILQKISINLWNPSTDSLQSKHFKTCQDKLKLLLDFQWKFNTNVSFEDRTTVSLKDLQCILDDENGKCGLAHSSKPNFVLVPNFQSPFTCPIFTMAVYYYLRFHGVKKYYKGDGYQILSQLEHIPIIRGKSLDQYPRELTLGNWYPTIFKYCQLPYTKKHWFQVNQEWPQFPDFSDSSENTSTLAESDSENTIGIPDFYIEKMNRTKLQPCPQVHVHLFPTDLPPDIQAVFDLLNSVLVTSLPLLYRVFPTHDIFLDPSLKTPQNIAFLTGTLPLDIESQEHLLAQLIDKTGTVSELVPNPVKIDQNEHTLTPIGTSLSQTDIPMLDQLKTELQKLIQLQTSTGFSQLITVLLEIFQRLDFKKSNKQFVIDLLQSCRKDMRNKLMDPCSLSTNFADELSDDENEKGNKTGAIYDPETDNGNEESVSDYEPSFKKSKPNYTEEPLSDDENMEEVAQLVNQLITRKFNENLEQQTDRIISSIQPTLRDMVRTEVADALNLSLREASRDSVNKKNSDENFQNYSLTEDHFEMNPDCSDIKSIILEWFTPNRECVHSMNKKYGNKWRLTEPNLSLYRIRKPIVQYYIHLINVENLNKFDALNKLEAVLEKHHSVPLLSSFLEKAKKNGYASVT

[4] = molecular target: T3, Ndc10 DI-III (Kluyveromyces lactis, UniProt Q6CPM4 1-534); assay: EMSA
T3 sequence: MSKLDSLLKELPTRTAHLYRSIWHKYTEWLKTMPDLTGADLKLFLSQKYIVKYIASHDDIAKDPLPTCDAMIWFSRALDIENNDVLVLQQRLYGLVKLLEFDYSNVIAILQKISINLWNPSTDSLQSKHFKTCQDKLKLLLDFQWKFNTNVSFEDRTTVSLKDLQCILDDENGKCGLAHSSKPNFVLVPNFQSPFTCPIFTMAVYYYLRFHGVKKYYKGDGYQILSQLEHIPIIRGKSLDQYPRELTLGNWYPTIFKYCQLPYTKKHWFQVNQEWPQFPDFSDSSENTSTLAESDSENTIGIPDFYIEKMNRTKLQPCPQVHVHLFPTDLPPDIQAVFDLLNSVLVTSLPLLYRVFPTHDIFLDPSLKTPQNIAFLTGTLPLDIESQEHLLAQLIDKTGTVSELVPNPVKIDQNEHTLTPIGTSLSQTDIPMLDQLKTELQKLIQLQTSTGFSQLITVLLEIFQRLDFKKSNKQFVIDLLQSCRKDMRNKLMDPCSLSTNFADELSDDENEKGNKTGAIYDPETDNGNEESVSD

[5] = molecular target: T4, Ndc10 DI-II (Kluyveromyces lactis, UniProt Q6CPM4 1-403); assay: ITC
T4 sequence: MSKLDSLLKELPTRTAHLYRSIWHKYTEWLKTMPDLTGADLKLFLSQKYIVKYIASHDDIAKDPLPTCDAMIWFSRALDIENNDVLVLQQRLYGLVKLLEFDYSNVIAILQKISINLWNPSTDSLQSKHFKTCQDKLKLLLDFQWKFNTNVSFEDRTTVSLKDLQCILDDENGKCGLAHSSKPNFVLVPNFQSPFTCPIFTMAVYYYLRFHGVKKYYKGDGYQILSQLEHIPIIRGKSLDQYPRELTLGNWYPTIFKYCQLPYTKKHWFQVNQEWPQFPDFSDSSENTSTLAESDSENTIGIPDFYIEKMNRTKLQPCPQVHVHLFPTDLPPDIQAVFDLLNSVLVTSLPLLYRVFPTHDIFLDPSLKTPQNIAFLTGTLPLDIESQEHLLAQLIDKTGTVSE

Row | Molecule | stoichiometry N [1] | binding result [2] | binding result [3] | binding result [4] | binding result [5]
1 | K. lactis Ndc10 DI–III (residues 1–534), purified (domain or fragment) | 2 |  |  |  | 
2 | 30 bp CEN1 CDEIII (dsDNA) DNA 1: TGCTTTATGTTTCCGAAAATTATTTTATTA DNA 2: TAATAAAATAATTTTCGGAAACATAAAGCA |  | no binding | binds | binds | binds
